From patent US20180360879A1 (CANCURE, published 2018)

Target: T1, murine 4-1BBL expressed on the surface of B16-F10 and B16-F10/4-1BBL melanoma cells (mouse, UniProt P41274 1-309)
T1 construct: whole, on cells; also called 4-1BB ligand; mouse 4-1BBL
T1 sequence (looked up): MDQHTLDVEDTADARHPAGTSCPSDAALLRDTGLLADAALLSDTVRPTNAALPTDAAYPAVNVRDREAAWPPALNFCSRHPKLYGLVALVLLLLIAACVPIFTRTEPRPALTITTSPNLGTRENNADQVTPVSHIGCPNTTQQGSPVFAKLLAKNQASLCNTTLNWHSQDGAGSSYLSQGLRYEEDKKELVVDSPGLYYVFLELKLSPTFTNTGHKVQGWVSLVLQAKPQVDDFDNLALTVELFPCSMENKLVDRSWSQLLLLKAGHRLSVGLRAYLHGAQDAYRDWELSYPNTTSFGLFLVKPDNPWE
Assay: flow cytometry; cells incubated with the chimera, detected with PE-conjugated IgG Fcγ Ab
Method: FIG. 2. B16-F10-4-1BBL cells express functional 4-1BBL binding to 4-1BB. Cells were incubated with 41BB/TNFRSF9/Fc chimera and stained using a PE-conjugated IgG Fcγ Ab to detect binding to 4-1BBL, measured using the FACSCalibur flow cytometer. The black and the green histograms represent the unstained control samples of B16-F10 and B16-F10-4/1BBL sorted cells respectively. The red and the purple histograms show the B16-F10 and B16-F10/4-1BBL cells respectively stained only with the IgG Fcγ PE secondary Ab. The blue histogram represents the B16-F10 cells incubated with the 4-1BB/TNFRSF9/Fc Chimera and stained with the IgG Fcγ PE secondary Ab. The maroon histogram depicts populations of cells further subjected to sorting for 4-1BBL, re-expanded in culture before immunostaining with the 41BB/TNFRSF9/Fc chimera and the IgG Fcγ PE secondary Ab
To further test that the 4-1BBL expressed on the B16-F10/4-1BBL cells was intact and functional, an additional assay was performed for the binding of 4-1BBL on the cells to its receptor, 4-1BB. […]
Transfection efficiency was determined by staining B16-F10 sublines with antibodies to detect the cell surface markers, B7.1 and 4-1BBL. […] The presence of both of these cell surface molecules were detected using either flow cytometer. […]

binding result: binds
B1: recombinant mouse 4-1BB/Fc chimera (Fc fusion, UniProt P20334 24-187, looked up)
chain: VQNSCDNCQPGTFCRKYNPVCKSCPPSTFSSIGGQPNCNICRVCAGYFRFKKFCSSTHNAECECIEGFHCLGPQCTRCEKDCRPGQELTKQGCKTCSLGTFNDQNGTGVCRPWTNCSLDGRSVLKTGTTEKDVVCGPPVVSFSPSTTISVTPEGGPGGHSLQVL
notes: Bought reagent; It calls it a 'primary antibody', but it is the receptor 4-1BB fused to Fc; also called 4-1BB/TNFRSF9/Fc Chimera; 41BB/TNFRSF9/Fc chimera; not shown: Fc part of the chimera
